The target of test [1] is T1, human Trophoblast cell surface antigen 2 (TROP2) (human, UniProt P09758 27-274, limits assumed).
T1 construct: Analyte in the SPR experiments and immunogen; also called human TROP2
T1 sequence: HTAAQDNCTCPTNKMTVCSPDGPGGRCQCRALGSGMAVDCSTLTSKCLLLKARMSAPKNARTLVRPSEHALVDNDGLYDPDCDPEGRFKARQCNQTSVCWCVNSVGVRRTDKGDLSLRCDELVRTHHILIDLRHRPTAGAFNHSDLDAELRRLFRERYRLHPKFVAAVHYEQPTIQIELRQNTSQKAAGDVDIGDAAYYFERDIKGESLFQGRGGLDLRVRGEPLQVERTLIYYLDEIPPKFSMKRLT
Briefly: SPR affinity ranking, human TROP2.

Test [2] concerns the target T1, human Trophoblast cell surface antigen …. Briefly: SPR, TROP2 as analyte.

Numbering of substitutions follows the chain as printed.

One may read the Kd as the equilibrium constant for the complex coming apart. A high value points to a looser complex. A word on the koff: it is a measure of how fast the partners let go of each other. Read a low koff as slow dissociation. A word on the kon: it is a measure of how fast the partners come together. Low values mean slower complex formation, high ones faster complex formation.

B1: HC2/LC5 (antibody, human IgG1, kappa, V domains shown)
VH: QVQLVQSGAEVKKPGASVKVSCKASGYTFTDYSINWVRQAPGQGLEWMGVISTYYGDASYNQKFKGRVTMTRDTSTSTVYMELSSLRSEDTAVYYCARYGDGYNQFDYWGQGTLVTVSS
VL: DIQMTQSPSSLSASVGDRVTITCRVSESVDSYGNNFMHWYQQKPGKAPKLLIYRASNLESGVPSRFSGSGSGTDFTFTISSLQPEDIATYYCQQSYEDPYTFGGGTKLEIKR
notes: Humanized anti-TROP2 antibody
Consider B1, for which, in test [1], binding was characterised by a dissociation constant (Kd) of 52 pM, the koff was found to be 7.38e-05 s⁻¹ and the association rate constant (kon) was 1.42e+06 M⁻¹ s⁻¹.

B2: HC4/LC2 (antibody, human IgG1, kappa, V domains shown)
VH: B1 VH with A16S, M70I, R72A, T74E, V79A
VL: DVVMTQSPLSLPVTLGQPASISCRVSESVDSYGNNFMHWFQQRPGQSPRRLIYRASNLESGVPDRFSGSGSGTDFTLKISRVEAEDVGVYYCQQSYEDPYTFGGGTKVEIKR
notes: Humanized anti-TROP2 antibody
Consider B2, for which, in test [1], binding was characterised by a dissociation constant (Kd) of 5340 pM, the koff was determined as 0.000984 s⁻¹ and the kon turned out to be 184000 M⁻¹ s⁻¹.

B3: HC2/LC3 (antibody, human IgG1, kappa, V domains shown)
VH: B1 VH
VL: B2 VL with V2I, L15P, Q17E, F40Y, Q41L, R43K, R49Q, R50L
notes: Humanized anti-TROP2 antibody
As to B3, in test [1], the equilibrium dissociation constant (Kd) turned out to be 104 pM, the koff was determined as 0.000141 s⁻¹ and the on-rate (kon) came out at 1.36e+06 M⁻¹ s⁻¹.

B4: HC2/LC4 (antibody, human IgG1, kappa, V domains shown)
VH: B1 VH
VL: EIVLTQSPATLSLSPGERATLSCRVSESVDSYGNNFMHWYQQKPGQAPRLLIYRASNLESGIPARFSGSGSGTDFTLTISSLEPEDFAVYYCQQSYEDPYTFGGGTKVEIKR
notes: Humanized anti-TROP2 antibody
For B4, in test [1], binding was put at a Kd of 95.7 pM, the koff was 0.00014 s⁻¹ and the kon was determined as 1.46e+06 M⁻¹ s⁻¹.

B5: HC2/LC1 (antibody, human IgG1, kappa, V domains shown)
VH: B1 VH
VL: DIVMTQSPDSLAVSLGERATINCRVSESVDSYGNNFMHWYQQKPGQPPKLLIYRASNLESGVPDRFSGSGSGTDFTLTISSLQAEDVAVYYCQQSYEDPYTFGQGTKLEIKR
notes: Humanized anti-TROP2 antibody
In test [1], B5 came in with a dissociation constant Kd of 37.5 pM, a koff of 5.78e-05 s⁻¹ and a kon of 1.54e+06 M⁻¹ s⁻¹.

B6: HC5/LC5 (antibody, human IgG1, kappa, V domains shown)
VH: EVQLVQSGAEVKKPGESLKISCKGSGYTFTDYSINWVRQMPGKGLEWMGVISTYYGDASYNQKFKGQVTISADKSISTAYLQWSSLKASDTAMYYCARYGDGYNQFDYWGQGTLVTVSS
VL: B1 VL
notes: Humanized anti-TROP2 antibody
With B6, in test [1], binding was characterised by a dissociation constant (Kd) of 238 pM, the koff is 0.000338 s⁻¹ and the kon turned out to be 1.42e+06 M⁻¹ s⁻¹.

B7: HC1/LC4 (antibody, human IgG1, kappa, V domains shown)
VH: B1 VH with R72T, V79A, S84R, E89D, L114M
VL: B4 VL
notes: Humanized anti-TROP2 antibody
Turning to B7, in test [1], binding was put at a Kd of 91.1 pM, the koff worked out at 0.000126 s⁻¹ and the kon was found to be 1.38e+06 M⁻¹ s⁻¹.

B8: HC1/LC5 (antibody, human IgG1, kappa, V domains shown)
VH: B1 VH with R72T, V79A, S84R, E89D, L114M
VL: B1 VL
notes: Humanized anti-TROP2 antibody; also called DP002-HC1LC5
In test [1], B8 returned a Kd of 107 pM, a koff of 0.000149 s⁻¹ and an on-rate constant (kon) of 1.39e+06 M⁻¹ s⁻¹. In test [2], this molecule gave a Kd of 57.7 pM, a koff of 0.000104 s⁻¹ and a kon of 1.81e+06 M⁻¹ s⁻¹.

B9: HC4/LC4 (antibody, human IgG1, kappa, V domains shown)
VH: B1 VH with A16S, M70I, R72A, T74E, V79A
VL: B4 VL
notes: Humanized anti-TROP2 antibody
In test [1], B9 registered a Kd of 52 pM, a koff of 8.88e-05 s⁻¹ and a kon of 1.71e+06 M⁻¹ s⁻¹.

B10: HC3/LC4 (antibody, human IgG1, kappa, V domains shown)
VH: B1 VH with G44R, M70I, T76A, V79A
VL: B4 VL
notes: Humanized anti-TROP2 antibody
In test [1], B10 returned an equilibrium dissociation constant (Kd) of 140 pM, a koff of 0.000192 s⁻¹ and a kon of 1.37e+06 M⁻¹ s⁻¹.

B11: HC2/LC2 (antibody, human IgG1, kappa, V domains shown)
VH: B1 VH
VL: B2 VL
notes: Humanized anti-TROP2 antibody
In test [1], B11 gave a Kd of 865000 pM, a koff of 0.0251 s⁻¹ and a kon of 24900 M⁻¹ s⁻¹.

B12: HC3/LC3 (antibody, human IgG1, kappa, V domains shown)
VH: B1 VH with G44R, M70I, T76A, V79A
VL: B2 VL with V2I, L15P, Q17E, F40Y, Q41L, R43K, R49Q, R50L
notes: Humanized anti-TROP2 antibody
B12: in test [1], the dissociation constant Kd is 107 pM, the koff is 0.000159 s⁻¹ and the kon was 1.49e+06 M⁻¹ s⁻¹.

B13: HC1/LC3 (antibody, human IgG1, kappa, V domains shown)
VH: B1 VH with R72T, V79A, S84R, E89D, L114M
VL: B2 VL with V2I, L15P, Q17E, F40Y, Q41L, R43K, R49Q, R50L
notes: Humanized anti-TROP2 antibody
On to B13, for which, in test [1], the Kd was determined as 121 pM, the koff amounted to 0.000196 s⁻¹ and the kon amounted to 1.62e+06 M⁻¹ s⁻¹.

B14: HC3/LC1 (antibody, human IgG1, kappa, V domains shown)
VH: B1 VH with G44R, M70I, T76A, V79A
VL: B5 VL
notes: Humanized anti-TROP2 antibody
In test [1], B14 gave a Kd of 67 pM, a koff of 0.00011 s⁻¹ and a kon of 1.65e+06 M⁻¹ s⁻¹.

B15: HC4/LC1 (antibody, human IgG1, kappa, V domains shown)
VH: B1 VH with A16S, M70I, R72A, T74E, V79A
VL: B5 VL
notes: Humanized anti-TROP2 antibody
For B15, in test [1], the affinity, expressed as Kd, was 45.7 pM; the koff is 7.74e-05 s⁻¹; the kon was 1.69e+06 M⁻¹ s⁻¹.

B16: HC3/LC5 (antibody, human IgG1, kappa, V domains shown)
VH: B1 VH with G44R, M70I, T76A, V79A
VL: B1 VL
notes: Humanized anti-TROP2 antibody
With B16, in test [1], the Kd came to 114 pM, the koff is 0.000151 s⁻¹ and the association rate constant (kon) was determined as 1.32e+06 M⁻¹ s⁻¹.

B17: HC4/LC3 (antibody, human IgG1, kappa, V domains shown)
VH: B1 VH with A16S, M70I, R72A, T74E, V79A
VL: B2 VL with V2I, L15P, Q17E, F40Y, Q41L, R43K, R49Q, R50L
notes: Humanized anti-TROP2 antibody
With B17, in test [1], the dissociation constant (Kd) was 91.6 pM, the koff was 0.000178 s⁻¹ and the kon stood at 1.95e+06 M⁻¹ s⁻¹.

B18: HC3/LC2 (antibody, human IgG1, kappa, V domains shown)
VH: B1 VH with G44R, M70I, T76A, V79A
VL: B2 VL
notes: Humanized anti-TROP2 antibody
Regarding B18, in test [1], the Kd came out at 10400 pM, the koff stood at 0.00177 s⁻¹ and the association rate constant (kon) is 169000 M⁻¹ s⁻¹.

B19: HC5/LC3 (antibody, human IgG1, kappa, V domains shown)
VH: B6 VH
VL: B2 VL with V2I, L15P, Q17E, F40Y, Q41L, R43K, R49Q, R50L
notes: Humanized anti-TROP2 antibody
In test [1], B19 came in with a Kd of 182 pM, a koff of 0.000266 s⁻¹ and a kon of 1.46e+06 M⁻¹ s⁻¹.

B20: HC5/LC4 (antibody, human IgG1, kappa, V domains shown)
VH: B6 VH
VL: B4 VL
notes: Humanized anti-TROP2 antibody
In test [1], B20 yielded an equilibrium dissociation constant (Kd) of 220 pM, a koff of 0.000299 s⁻¹ and a kon of 1.36e+06 M⁻¹ s⁻¹.

B21: HC5/LC1 (antibody, human IgG1, kappa, V domains shown)
VH: B6 VH
VL: B5 VL
notes: Humanized anti-TROP2 antibody
Turning to B21, in test [1], the Kd was 147 pM, the off-rate (koff) stood at 0.000235 s⁻¹ and the kon amounted to 1.6e+06 M⁻¹ s⁻¹.

B22: HC5/LC2 (antibody, human IgG1, kappa, V domains shown)
VH: B6 VH
VL: B2 VL
notes: Humanized anti-TROP2 antibody
For B22, in test [1], the Kd is 1540 pM, the koff turned out to be 0.000402 s⁻¹ and the kon amounted to 261000 M⁻¹ s⁻¹.

The values are drawn from patent publication US20220153862A1 (CSPC MEGALITH BIOPHARMACEUTICAL, published 2022).
